Laboratory results from patent US20220089721A1 (Bayer, published 2022).

T1: human CEACAM6 (carcinoembryonic antigen-related cell adhesion molecule 6) (human, UniProt P40199 35-320)
T1 sequence (looked up): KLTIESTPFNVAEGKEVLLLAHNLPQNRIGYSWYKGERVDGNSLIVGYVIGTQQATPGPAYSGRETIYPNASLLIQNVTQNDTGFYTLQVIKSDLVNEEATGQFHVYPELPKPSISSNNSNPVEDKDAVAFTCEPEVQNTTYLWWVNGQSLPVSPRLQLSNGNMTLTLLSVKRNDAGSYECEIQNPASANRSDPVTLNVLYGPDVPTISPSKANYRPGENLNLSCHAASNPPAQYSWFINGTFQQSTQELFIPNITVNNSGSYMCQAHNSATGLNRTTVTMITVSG

B1: anti-CEACAM6 antibody TPP-3310 (antibody, human IgG2, kappa, V domains shown)
VH: QVTLRESGPALVKPTQTLTLTCTFSGFSLSTYGIGVGWIRQPPGKALEWLAHIWWNDNKYYSTSLKTRLTISKDTSKNQVVLTMTNMDPVDTATYYCARISLPYFDYWGQGTTLTVSS
VL: DIQLTQSPSFLSASVGDRVTITCKASQNVGTAVAWYQQKPGKAPKLLIYSASNRYTGVPSRFSGSGSGTEFTLTISSLQPEDFATYYCQQYSSYPLTFGGGTKVEIKR

Assays:
[1] = biological target: T cell immunoglobulin domain and mucin domain 3 (TIM-3) (human) (UniProt Q8TDQ0); assay: cell-based or functional assay
[2] = biological target: T1, human CEACAM6 (carcinoembryonic …); assay: cell-based or functional assay

Molecule	IFN-γ in pg/ml, absolute mean, TC + HCC + 0.5 µg/ml FLU pep + 50 µg/ml antibody (isotype Mab006: 735.0) [1] [pg/mL]	IFNg [pg/ml], isotype corrected, FluM1 T cells + HCC2935, single agent 50 µg/ml, experiment 1 [1] [pg/mL]	IFNg [pg/ml], isotype corrected, FluM1 T cells + HCC2935, single agent 50 µg/ml, experiment 2 [1] [pg/mL]	IFNg [pg/ml], isotype corrected, FluM1 T cells + HCC2935, single agent 50 µg/ml, experiment 3 [1] [pg/mL]	IFNg [pg/ml], isotype corrected, FluM1 T cells + HCC2935, single agent 50 µg/ml, experiment 4 [1] [pg/mL]	IFNg [pg/ml], isotype corrected, FluM1 T cells + HCC2935, single agent 50 µg/ml, experiment 5 [1] [pg/mL]	IFNg [pg/ml], isotype corrected, FluM1 T cells + HCC2935, single agent 50 µg/ml, experiment 6 [1] [pg/mL]	IFNg [pg/ml], isotype corrected, FluM1 T cells + HCC2935, single agent 50 µg/ml, experiment 7 [1] [pg/mL]	IFNg [pg/ml], isotype corrected, FluM1 T cells + HCC2935, single agent 50 µg/ml, mean of n = 7 [1] [pg/mL]	Mean IFNg (pg/ml), isotype corrected, survivin-peptide specific T cells + HCC2935 lung cells, single agent 50 µg/ml, n = 1 [1] [pg/mL]	Mean IFNg (pg/ml), isotype corrected, survivin-peptide specific T cells + KS breast cancer cells, single agent 50 µg/ml, n = 1 [1] [pg/mL]	half-maximal effective concentration (EC50) for activation of T cells in co-culture [2] [µg/mL]
MAB2365 (rIgG2, R&D Jackson Immunoresearch), anti-TIM3 antibody	925	65	67.7	37	247	287	288	278	182	63.6	18.3	–
B1	–	–	–	–	–	–	–	–	–	–	–	~1
